Target: the molecule itself
Assay: other fluorescence titration; aliquots of protein added to poly(εA), enhancement of ethenoadenylate fluorescence; 0.45 M NaCl, 0.02 M HEPES pH 7.68, 1x10^-4 M EDTA/Na+, 20°C; McGhee-von Hippel cooperative model, n = 8; ω is the cooperativity between adjacent proteins bound on the polynucleotide

Protein | cooperativity parameter ω (on poly(εA))
Bacteriophage T4 gene 32 protein, full-length protein (1-301) (natural protein, UniProt P03695 1-301, looked up, also called gp32; wild-type gp32; source: expression plasmid pYS6, induced, overexpressed and purified as previously described) MFKRKSTAELAAQMAKLNGNKGFSSEDKGEWKLKLDNAGNGQAVIRFLPSKNDEQAPFAILVNHGFKKNGKWYIETCSSTHGDYDSCPVCQYISKNDLYNTDNKEYSLVKRKTSYWANILVVKDPAAPENEGKVFKYRFGKKIWDKINAMIAVDVEMGETPVDVTCPWEGANFVLKVKQVSGFSNYDESKFLNQSAIPNIDDESFQKELFEQMVDLSEMTSKDKFKSFEELNTKFGQVMGTAVMGGAAATAAKKADKVADDLDAFNVDDFNTKTEDDFMSSSSGSSSSADDTDLDDLLNDL | 2000
gp32 variant D215A, E218A, D223A (natural protein, bacteriophage T4, UniProt P03695 1-301, looked up, gene 32 protein of bacteriophage T4 with three negative charges removed within and adjacent to the B helix (216-220); source: pYS6 variant, induced, overexpressed and purified as previously described) MFKRKSTAELAAQMAKLNGNKGFSSEDKGEWKLKLDNAGNGQAVIRFLPSKNDEQAPFAILVNHGFKKNGKWYIETCSSTHGDYDSCPVCQYISKNDLYNTDNKEYSLVKRKTSYWANILVVKDPAAPENEGKVFKYRFGKKIWDKINAMIAVDVEMGETPVDVTCPWEGANFVLKVKQVSGFSNYDESKFLNQSAIPNIDDESFQKELFEQMVALSAMTSKAKFKSFEELNTKFGQVMGTAVMGGAAATAAKKADKVADDLDAFNVDDFNTKTEDDFMSSSSGSSSSADDTDLDDLLNDL | 120
gp32 variant E229A, E230A (natural protein, bacteriophage T4, UniProt P03695 1-301, looked up, gene 32 protein of bacteriophage T4 with two negative charges removed within the C helix (228-237); source: pYS6 variant, induced, overexpressed and purified as previously described) MFKRKSTAELAAQMAKLNGNKGFSSEDKGEWKLKLDNAGNGQAVIRFLPSKNDEQAPFAILVNHGFKKNGKWYIETCSSTHGDYDSCPVCQYISKNDLYNTDNKEYSLVKRKTSYWANILVVKDPAAPENEGKVFKYRFGKKIWDKINAMIAVDVEMGETPVDVTCPWEGANFVLKVKQVSGFSNYDESKFLNQSAIPNIDDESFQKELFEQMVDLSEMTSKDKFKSFAALNTKFGQVMGTAVMGGAAATAAKKADKVADDLDAFNVDDFNTKTEDDFMSSSSGSSSSADDTDLDDLLNDL | 1000

From doi:10.1101/2025.09.02.673855, “Bacteriophage T4 gene 32 protein: Insights into its Interaction with ssDNA, binding cooperativity, and conformational change” (bioRxiv, 2025)
